Measured values from PMC4141822.
Residue numbers refer to the chain shown, from its start.

Assays:
Details in all cases: protein: recombinant; tags: none stated (pET24a); label: 5' 32P
Csa5 D30A/D33A = molecular target: T1, Csa5 D30A/D33A (Thermoproteus tenax Kra1, UniProt G4RJZ0 1-130, D30A;D33A); experiment: EMSA; defined shift from 30 uM; EMSA: 100 mM HEPES/KOH pH 7, 10 mM beta-mercaptoethanol, 37 C 30 min, 6% native TBE PAGE; MST: 50 mM Tris-HCl pH 7.4, 150 mM NaCl, 0.05% Tween-20, 37 C 30 min
T1 sequence: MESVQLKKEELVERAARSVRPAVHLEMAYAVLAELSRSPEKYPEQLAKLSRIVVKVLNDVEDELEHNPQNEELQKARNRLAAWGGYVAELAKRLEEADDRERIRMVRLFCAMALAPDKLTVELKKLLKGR

Csa5 D33A = molecular target: T2, Csa5 D33A (Thermoproteus tenax Kra1, UniProt G4RJZ0 1-130, D33A); experiment: EMSA; shift from 15 uM; EMSA: 100 mM HEPES/KOH pH 7, 10 mM beta-mercaptoethanol, 37 C 30 min, 6% native TBE PAGE; MST: 50 mM Tris-HCl pH 7.4, 150 mM NaCl, 0.05% Tween-20, 37 C 30 min
T2 sequence: T1 sequence with A30D

Csa5 Y29A = molecular target: T3, Csa5 Y29A (Thermoproteus tenax Kra1, UniProt G4RJZ0 1-130, Y29A); experiment: as above
T3 sequence: T1 sequence with Y29A, A30D, A33D

B1: non-target (NT) ssDNA 97 nt (ssDNA)
DNA: GTCGACTAATACGACTCACTATAGGCCTATCGCTTGTCCAACCGGGCTCCTCTATATGTCGTCATTAGCTTACCGCTGAGCAATAACTAGCAAGCTT
binding signal (Csa5 D30A/D33A): ~4 % of WT binding | binding signal (Csa5 D33A): ~18 % of WT binding | binding signal (Csa5 Y29A): ~10 % of WT binding
